This is an account of results in publication doi:10.1101/2023.02.16.528799.

The test deals with TAX peptide, Human T-cell leukemia virus type I peptide on HLA-A2 (human). In words: data from Cole et al., 2013.

As to “A6-TCR after mutation of the CDR3 beta loop (PDBID 4FTV)”, the fold enhancement of binding over A6-TCR is 1000 fold.
